The text below walks through data of patent US20150158947A1 (COMPUGEN, published 2015).

For assay [1], the target named is C1ORF32-ECD-hIgG1 fusion protein (SEQ ID NO: 23). The assay can be described thus: hybridoma binding screen by ELISA on fusion proteins SEQ ID NO: 23 and SEQ ID NO: 24 or on HEK293T cells over expressing C1ORF32. On the procedure: (§1) Binding screening was performed by ELISA using fusion proteins C1ORF32-ECD-hIgG1 (SEQ ID NO: 23) and C1ORF32-ECD-mIgG2a (SEQ ID NO: 24) or stable pool of HEK293T cells over expressing C1ORF32 described in section “Generation of stable pools expressing C1ORF32 protein” herein. […] Hybridomas were stabilized, subcloned and processed for antibody production and purification.

In assay [2] the target is T1, C1ORF32-ECD-mIgG2a fusion protein (SEQ ID NO: 24).
T1 chain: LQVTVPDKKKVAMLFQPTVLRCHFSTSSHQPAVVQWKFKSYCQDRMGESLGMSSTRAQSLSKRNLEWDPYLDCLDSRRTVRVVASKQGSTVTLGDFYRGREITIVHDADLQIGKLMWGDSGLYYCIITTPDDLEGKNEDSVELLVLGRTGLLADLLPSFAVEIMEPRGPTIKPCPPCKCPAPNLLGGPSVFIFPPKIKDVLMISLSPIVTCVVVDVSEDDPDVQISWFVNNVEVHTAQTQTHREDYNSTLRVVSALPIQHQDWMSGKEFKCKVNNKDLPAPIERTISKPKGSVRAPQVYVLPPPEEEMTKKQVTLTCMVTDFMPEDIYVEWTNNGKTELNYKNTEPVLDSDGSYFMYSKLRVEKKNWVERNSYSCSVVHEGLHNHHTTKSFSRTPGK
The assay is described as above. On the procedure:
as §1

Assay [3] deals with T2, human C1ORF32 protein (SEQ ID NO: 1) (human, UniProt Q71H61 21-234).
T2 sequence: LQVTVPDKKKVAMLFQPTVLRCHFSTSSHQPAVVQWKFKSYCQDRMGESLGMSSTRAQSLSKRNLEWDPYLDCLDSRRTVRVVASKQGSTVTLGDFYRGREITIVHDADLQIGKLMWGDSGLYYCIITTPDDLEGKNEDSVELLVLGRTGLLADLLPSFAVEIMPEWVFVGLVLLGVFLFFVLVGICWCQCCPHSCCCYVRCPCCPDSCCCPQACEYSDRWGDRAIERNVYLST
In words: cell-based or functional assay.

Assay [4] concerns the target T3, chimeric mouse-human C1ORF32 (SEQ ID NO: 8) (chimeric mouse (ECD) / human (tail), UniProt B5TVM2 36-249).
T3 construct: also called mouse-human chimeric C1ORF32; chimeric human-mouse C1ORF32
T3 chain: T2 sequence with T55P, S59A
The assay can be described thus: flow cytometry on HEK293T cells expressing chimeric mouse-human C1ORF32 (SEQ ID NO: 8; panel title: 293T-C1ORF32 HA MUTATED CELLS), antibody 20 ug/ml, anti mouse DyLight 549 secondary. The method, then:
(§2) FIG. 5A presents empty vector transfected cells; FIG. 5B presents human-C1ORF32 transfected cells (SEQ ID NO:1), FIG. 5C presents human-C1ORF32-HA tagged transfected cells(SEQ ID NO: 22); FIG. 5D presents chimeric mouse-human C1ORF32 transfected cells (SEQ ID NO: 8); FIG. 5E presents mouse C1ORF32 transfected cells (SEQ ID NO: 21).
(§3) Flow Cytometry analysis was performed to verify the mAbs binding to native cell surfaced C1ORF32 protein (SEQ ID NO: 1) in stable transfected cells described above. […] Anti-Cephalosporin served as negative control (SLRC, CH2025P). Recombinant HEK293T cells expressing C1ORF32 proteins, i.e. human C1ORF32 (SEQ ID NO:1), chimeric human-mouse C1ORF32 (SEQ ID NO:8) and mouse C1ORF32—Flag tagged (SEQ ID NO:21) were stained with anti C1ORF32 antibodies or anti-Cephalosporin followed by Donkey Anti Mouse-DyLight 549 conjugated secondary Ab (Jackson 715-506-150) as described in Example 6, herein. Fluorescent signal was observed.
In general terms: Flow cytometry measures light scatter and fluorescence of single cells or particles in a stream.

In assay [5] the target is T2, human C1ORF32 protein (SEQ ID NO: 1). The assay can be described thus: flow cytometry on HEK293T cells expressing human C1ORF32 untagged (SEQ ID NO: 1), antibody 20 ug/ml, anti mouse DyLight 549 secondary. On the procedure: as §2, §3
Assay [6] deals with T4, C1ORF32-ECD-mouse IgG2a-fused protein (SEQ ID NO: 4) (human C1ORF32 ECD, mouse IgG2a Fc).
T4 construct: Purified recombinant fusion protein; also called C1ORF32-ECD-mouse IgG2a fusion protein; recombinant ECD-mIgG2a fusion protein
T4 chain: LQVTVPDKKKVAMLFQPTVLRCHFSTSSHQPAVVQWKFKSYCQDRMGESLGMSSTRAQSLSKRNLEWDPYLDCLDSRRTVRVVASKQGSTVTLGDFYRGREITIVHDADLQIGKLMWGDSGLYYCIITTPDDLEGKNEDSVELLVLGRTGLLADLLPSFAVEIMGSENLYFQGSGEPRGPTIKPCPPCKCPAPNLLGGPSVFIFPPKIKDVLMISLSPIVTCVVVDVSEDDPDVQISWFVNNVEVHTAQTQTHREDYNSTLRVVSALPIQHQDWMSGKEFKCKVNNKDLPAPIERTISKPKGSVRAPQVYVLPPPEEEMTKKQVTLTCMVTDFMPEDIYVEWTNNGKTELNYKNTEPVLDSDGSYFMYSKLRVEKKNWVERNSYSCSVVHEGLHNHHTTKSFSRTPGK
In words: hybridoma binding screen by ELISA on ECD-mIgG2a fusion protein (SEQ ID NO: 4) or on HEK-293T cells over expressing C1ORF32. The text has this: Three positive clones were further processed for subcloning in order to establish stable hybridoma clones. Hybridomas were stabilized, subcloned and processed for antibody production and purification.
Background: ELISA stands for enzyme-linked immunosorbent assay.

The target of assay [7] is T5, human C1ORF32-HA tagged protein (SEQ ID NO: 22) (human).
T5 chain: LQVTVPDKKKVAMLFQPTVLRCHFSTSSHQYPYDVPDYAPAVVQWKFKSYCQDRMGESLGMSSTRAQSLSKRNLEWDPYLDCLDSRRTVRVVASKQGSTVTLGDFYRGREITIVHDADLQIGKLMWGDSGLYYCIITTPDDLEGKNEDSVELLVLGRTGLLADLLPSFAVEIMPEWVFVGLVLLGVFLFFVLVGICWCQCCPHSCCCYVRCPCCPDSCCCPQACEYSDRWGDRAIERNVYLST
In words: flow cytometry on HEK293T cells expressing human C1ORF32-HA tagged (SEQ ID NO: 22), antibody 20 ug/ml, anti mouse DyLight 549 secondary. The method, then:
as §2, §3

For assay [8], the target named is T6, mouse C1ORF32-Flag tagged protein (SEQ ID NO: 21) (mouse, UniProt B5TVM2 36-661).
T6 sequence: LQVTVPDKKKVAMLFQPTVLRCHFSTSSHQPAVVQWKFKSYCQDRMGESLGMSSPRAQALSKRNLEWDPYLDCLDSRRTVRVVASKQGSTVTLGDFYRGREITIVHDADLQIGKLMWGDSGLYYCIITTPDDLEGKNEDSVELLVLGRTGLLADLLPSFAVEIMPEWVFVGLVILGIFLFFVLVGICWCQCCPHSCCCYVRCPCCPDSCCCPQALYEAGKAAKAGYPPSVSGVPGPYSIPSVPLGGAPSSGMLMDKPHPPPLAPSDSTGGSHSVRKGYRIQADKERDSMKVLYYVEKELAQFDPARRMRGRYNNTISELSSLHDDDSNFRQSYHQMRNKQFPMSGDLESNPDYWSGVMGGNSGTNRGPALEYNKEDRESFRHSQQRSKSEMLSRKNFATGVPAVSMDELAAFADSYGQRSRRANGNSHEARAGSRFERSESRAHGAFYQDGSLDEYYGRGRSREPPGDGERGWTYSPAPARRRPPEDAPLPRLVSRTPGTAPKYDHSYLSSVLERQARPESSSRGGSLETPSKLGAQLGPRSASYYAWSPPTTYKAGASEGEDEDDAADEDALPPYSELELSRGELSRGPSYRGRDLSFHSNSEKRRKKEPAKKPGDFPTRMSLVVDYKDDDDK
In words: flow cytometry on HEK293T cells expressing mouse C1ORF32-Flag (SEQ ID NO: 21; panel title: 293-C1ORF32 HA MOUSE CELLS), antibody 20 ug/ml, anti mouse DyLight 549 secondary. On the procedure: as §2, §3

In assay [9] the target is T2, human C1ORF32 protein (SEQ ID NO: 1). The assay can be described thus: flow cytometry titration of 5159-1 on CHOK1 cells expressing human C1ORF32. On the procedure:
(§4) The cells were washed once in FACS buffer, re-suspended in 25 ul of Alexa Fluor 647 conjugated F(ab′)2 fragment of goat anti mouse IgG (Jackson Immunoresearch cat#115-606-146) for 30 minutes at 4 degrees C. The cells were washed again in FACS buffer, re-suspended in 35 ul of FACS buffer and 35 ul of 4% paraformaldehyde and analysed on either a FACS Calibur or an Intellicyt HTFC. Data was analyzed by FlowJo, Excel and GraphPad Prism.

For assay [10] the target is unchanged. In words: flow cytometry titration of 5159-1 on HEK293T cells expressing human C1ORF32. The method, then: as §4

Where a chain is given by its changes, count along the chain named. Values joined by “and” are separate entries in the source; they are usually repeats but may differ in a detail not shown here. Equal entries are not always repeated.

B1: anti C1ORF32 monoclonal antibody 5166-2 (antibody, V domains shown)
VH: QIQLVQSGPELKKPGETVKISCKASAYTFTDYSMHWVKQAPGKGLKWMGWINTETGEPTYAGDFKGRFAFSLETSASTAYLQINNLKNEDTATYFCVRAGYYDYFDYWGQGTTLTVSS
VL: DIVMTQSHKFMSTSVGDRVSITCKASQDVVTAVAWYQQKPGQSPKLLIYWASNRHTGVPDRFTGSGSGTDFTLTITNVQSEDLADYFCQQYSSYPLTFGGGTKLEIK
notes: Murine IgG1 k from a hybridoma
With B1, the binding result in [1] and in assay [2] was “binds” in each case.

B2: anti C1ORF32 monoclonal antibody 5166-9 (antibody, V domains shown)
VH: EVKMVESGGGLVQPGGSLKLSCATSGFTFSDYYMYWVRQTPEKRLEWVAYISNGGGSTYYPDTVKGRFTISRDNAKNTLYLQMSRLKSEDTAMYYCARQGYYYGSSPFAYWGQGTLVTVSA
VL: DIVMTQSHKFMSTSVGDRVSITCKASQDVSTAVAWYQQKPGQSPKLLIYSASYRYTGVPDRFTGSGSGTDFTFTISSVQAEDLAVYYCQQHYSTPYTFGGGTKLEIK
notes: Murine IgM k from a hybridoma
For the molecule B2, the binding result in assay [1] is given as “binds”. Moreover, in assay [2], the binding result is “binds”. In assay [3], the “CDC activity, EC50, on CHOK1 cells expressing C1ORF32 (CellTiter-Glo viability, rabbit complement, 1 hr)” value is 33 ng/ml and 0.2 nM; the “CDC activity, EC50, on HEK293T cells expressing C1ORF32 (CellTiter-Glo viability, rabbit complement, 1 hr)” value is 1.8 ng/ml and 0.01 nM.

B3: anti C1ORF32 monoclonal antibody 5159-2 (antibody, V domains shown)
VH: QVTLKESDPGILQPSQTLSLTCSFSGFSLSTSGMGVGWIRQPSGKGLEWLAHIWWDDVKRYNSALKNRLTISKDTSSSQVFLKIANVDTADTATYYCARIARHFFDYWGQGTTLTVSS
VL: DIKMTQSPSSMYASLGERVTITCKASQDIHGYLSWFHQKPVKSPKTLIYRANRLIDGVPSRFSGSGSGQDYFLTISSLEYEDMGIYYCLQYDEFPWTFGGGTKLEIK
notes: as for B1
B3: the binding result in [4], in assay [5], in assay [6], in assay [7] and in [8] was “binds” each time.

B4: anti C1ORF32 monoclonal antibody 5159-1 (antibody, V domains shown)
VH: QVTLKESGPGILQPSQTLNLTCSFSGFSLSSSYMGVGWIRQPSGKGLEWLAHIWWDDVKRYNPALKSRLTISKDISNNQVFLKIASVDTADSATYYCGRIDRHYFDYWGQGTILTVSS
VL: B3 VL with M11I, H30N, S34T, H37Q, V41G, I55L, F72S, E79D
notes: as for B1
As a reminder, the EC50 (read off the curve) is the concentration needed to bring the measured effect to its halfway point. Low values mean a more potent agent, high ones a less potent agent. As for B4, the binding result in assay [4], in [6] and in [7] was “binds” in each case. The entries for the “EC50 (read off the curve)” value in [9] and in assay [10] were roughly 1 µg/mL and roughly 0.8 µg/mL, respectively.
